# Measurements taken from the nanobody polyreactivity screen of Harvey et al. (2022).
# Assay: yeast display, Sf9 membrane polyspecificity reagent, FACS + sequencing; frameworks hold sequencing errors
# Method in brief: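 Synthetic nanobody libraries on Saccharomyces cerevisiae BJ5465 were galactose-induced for 36–48 hours, stained 1 hour at 4 °C with 10% biotinylated, detergent-solubilized Sf9 membrane reagent and enriched on streptavidin microbeads. FACS then separated cells into low and high (top ~1%) gates by anti-HA (expression) and streptavidin (reagent binding) fluorescence. Genes were colony-PCR amplified, MiSeq 2 × 250 sequenced and CDR-length filtered. A clone's polyreactivity label is that of its gate of origin.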
row,Sequence,polyreactivity (PSR sort gate)
1,QVQLVESGGGLVQAGGSLRLSCAASGRTFTLYTMGWYRQAPGKERELVAAIRYSGGSTYYADSVKGRFTISRDNAKNTVYLHMNSLKPEDTAVYYCAARSYYYGFLYRYDYWGQGTQVTVSS,low polyreactivity
2,QVQLVESGGGLVQAGGSLRLSCAASGRTFTNYAMGWYRQAPGKERELVAAAITVGGGRTYYADSVKGRFTISRDNAKNTVYLQMNSLKPEDTAVYYCATDFGTYWYEYWGQGTQVTVSS,high polyreactivity
3,QVQLVESGGGLVQAGGSLRLSCAASGRTFTRNAMGWYRQAPGKERELVAVITSSGRTNYADSVKGRFTISRDNAKKTVYLQMNSLKPEDTAVYYCNKVSARYPYPLYDYWGQGTQVTVSS,high polyreactivity
4,QVQLVESGGGLVQAGGSLRLSCAASGRTFTRNAMGWYRQAPGKERELVAVITSSGRTNYADSVKGRFTISRDNAKNTVYLQMNSLKPEDTAVYYCNKVSARYPYPLYDYWGQGTQVTVSS,high polyreactivity
5,QVQLVESGGGLVQAGGSLRLSCAASGRTFTRYAMGLYRQAPGKERELVAGITGRAGSTYYADSVKGRFTISRDNAKNTVYLQMNSLKPEDTAVYYCAADAGYRRSSLYEYDYWGHGTQVTVSS,low polyreactivity
6,QVQLVESGGGLVQAGGSLRLSCAASGRTFTRYAMGWYRQAPGKERELVAAISRSGGSTHYADSVKGRFTISRDNAKNTVYLQMNSLKPEDTAVYFCNTVGYRGRSNSRFYYWGQGTQVTVSS,high polyreactivity
7,QVQLVESGGGLVQAGGSLRLSCAASGRTFTRYARGWYRQAPGKERELVAVISWSVGSTYYADSVKGRFTISRDNAKNTVYLQMNSLKPEDTAVYYCNSDVLSWSQEYDYWGQGTQVTVSS,low polyreactivity
8,QVQLVESGGGLVQAGGSLRLSCAASGRTFTRYVMGWYRQAPGKESELVAVISSGGRTYYADSVKGRFTISRDNAKNTVYLQMNSLKPEDTAVYYCAAVTHPAWAVEYDYWGQGTQVTVSS,high polyreactivity
9,QVQLVESGGGLVQAGGSLRLSCAASGRTFTSNAMGWSRQAPGKERELVAAIDDGGSTNYADSVKGRFTISRDNAKNTVYLQMNSLKPEDTAVYYCNAPITWQYRGFRRRFDYWGQGTQVTVSS,low polyreactivity
10,QVQLVESGGGLVQAGGSLRLSCAASGRTFTSYAMGWYRQAPGKESELVAAIRRSGGSTYADSVKGRFTISRDNAKNTVYLQMNSLKPEDTAVYYCAAGHYWFTKGYHTLYDMDYWGQGTQVTVSS,high polyreactivity
11,QVQLVESGGGLVQAGGSLRLSCAASGRTFTTIAMGWYRQAPGKERELVSAINSGGSTNYADSVKGRFTISRDNAKNTVYLQMNSLKPEDTAVYYCAKRQRDYSSVFDVDYWGQGTQVTVSS,low polyreactivity
12,QVQLVESGGGLVQAGGSLRLSCAASGRTFTTYAMGWYRQAPGKERELVAAISDTGGITYYADSVKGRFTISRDNAKNTVYLQMNSLKPEDTAVYYCNAESYRAPYDYWGQCTQVTVSS,low polyreactivity
13,QVQLVESGGGLVQAGGSLRLSCAASGRTFTVYAMGWNRQAPGKEREFVATSSWSGGRTYYADSVKGRFTISRDNAKYTVYLQMNSLKPEDTAVYYCAAQEYTTRFYFNRDYWGQGTQVTVSS,low polyreactivity
14,QVQLVESGGGLVQAGGSLRLSCAASGRTFTWYAMGWYRQAPGKERELVAVISRGGSTNYADSVKGRFTISRDNAKNTVYLQMKSLKPEDTAVYYCAARGLYRARLKLDYWGQGTQVTVSS,high polyreactivity
15,QVQLVESGGGLVQAGGSLRLSCAASGRTFTYNTMGWYRQAPGKERELVAAISSSGGSTYYADSVKGRFTISRDNAKNSVYLQMNSLKPEDTAVYYCAKRYFSSSRYYYWGQGTQVTVSS,high polyreactivity
16,QVQLVESGGGLVQAGGSLRLSCAASGRTFTYYAMGWYIHAPGKERELVAAITWSGGSTYYADSVKGRFTISRDNAKNSVYLHMNSLKPEDTAVYYCNKTYRQGWSWVSYRSYGSGEGYWGQGTQVTVSS,high polyreactivity

row,Sequence,polyreactivity (PSR sort gate)
1,QVQLVESGGGLVQAGGSLRLSCAASGRTFTYYAMGWYRQAPGKERELVAAIRYTGGSTHYADSVKGRFTISRDNAKNTVYLQIHSLKPEDTAVYYCGARRAYTRGGTVYFGYYYWGQGTQVTVSS,high polyreactivity
2,QVQLVESGGGLVQAGGSLRLSCAASGRTFTYYTMGWYRQAPGKERELVAAITWSGGRTYYADSVKGRFTISRDNAKYTVYLQMNSLKPEDTAVYYCAKPPQGTYDYWGQGTQVTVSS,low polyreactivity
3,QVQLVESGGGLVQAGGSLRLSCAASGRTFVANVKGWYRQAPGKERELVAGISTRGGRTYYADSVKGRFTISRDNAKNTVYLQMNSLKPEDTAVYYCAVRHYRDSTPRGAYQRYDYWGQGTQVTVSS,low polyreactivity
4,QVQLVESGGGLVQAGGSLRLSCAASGRTFVCNAMGWYRQAPGKERELVAAISSSGTATYYADSVKGRFTISRDNAKNTVYLQMNSLKPEDTAVYYCAKDLLYQPTIRDYWGQGTQVTVSS,low polyreactivity
5,QVQLVESGGGLVQAGGSLRLSCAASGRTFVGNAMGWYRQAPGKERELVADITWSGDITYYADSVKGRFTISRDNAKNTVYLQMHSLKPEDTAVYYCAADYHRRRTDYDYWGQGTQVTVSS,low polyreactivity
6,QVQLVESGGGLVQAGGSLRLSCAASGRTFVGNAMGWYRQAPGKERELVATITRRGGSTYYADSVKGRFTISRDNAKNTVYLQMNSLKPEDTAVYYCAAGSQPGRKYYYWGQGTQVTVSS,high polyreactivity
7,QVQLVESGGGLVQAGGSLRLSCAASGRTFVGNAMGWYRQAPGKERELVAVITGSGARTYYADSVKGRFTISRDNAKNTVYLQMNSLKPEDTAVYYCAAAGYSGQYRSYYWGQGTQVTVSS,high polyreactivity
8,QVQLVESGGGLVQAGGSLRLSCAASGRTFVGYAMGWYRQAPGKERELVAAIRNGGGTYYADSVKGRFTISRDNAKNTVYLQMNSLKPEDTAVYYCAARLPRSLKVGYYWGQGTQVTVSS,high polyreactivity
9,QVQLVESGGGLVQAGGSLRLSCAASGRTFVGYAMGWYRQAPGKERELVAAISTSGGRTYYADSVKGRFTISRDNEKYTVYLQMNSLKPEDTAVYYCAAGFRASIGYVTEYYWGQGTQVTVTS,high polyreactivity
10,QVQLVESGGGLVQAGGSLRLSCAASGRTFVGYAMGWYRQPPGKERELVAAISGSGVRTYYADSVKGRFTISRDNAKNTGYLQMNSLKPEDTAVYYCADRRYRRWYDYWGQGTQVTVSS,high polyreactivity
11,QVQLVESGGGLVQAGGSLRLSCAASGRTFVGYVMGWYRQAPGKERELVASITYTGTSTYYADSVKGRFTISRDNAKNTVYLQMNSLKPEDTAVYYCAAQYYLYRRGYIWKYDYWGQGTQVTVSS,high polyreactivity
12,QVQLVESGGGLVQAGGSLRLSCAASGRTFVHYTMGWYRQAPGKERELVAAISGTGTSTYYADSVKGRFTISRDNAKNTVYLQMNSLKPEDTAVYDCARDPYFGFLIGYPRRDYWGQGTQVTVSS,low polyreactivity
13,QVQLVESGGGLVQAGGSLRLSCAASGRTFVHYTMGWYRQAPGKERELVATISTSGGSTSYADSVKGRFTISRDNAKNTVYVQMNSLKPEDTAVYYCAARWYFPDRVKYVYWGQGTQVTVSS,low polyreactivity
14,QVQLVESGGGLVQAGGSLRLSCAASGRTFVNYAMGWYRQAPGKERELVAAISGGGGTNYADSVKGRFTISRDNAKNTVYLHMNSLKPQDTAVYYCAADTNGYEFDYWGQGTLVTVSS,low polyreactivity
15,QVQLVESGGGLVQAGGSLRLSCAASGRTFVNYAMGWYRQAPWKERELVAAITWSSGRTYYADSVKGRFTISRDNAKNTVYLQMNSLKPEDTAVYYCAAVGRYSGYDYWGQGTQVTVSS,high polyreactivity
